From a protein production outcome set (Wang et al. 2014)

Test: label from the status in PepcDB records

| Sequence | protein production |
| --- | --- |
| MSRNHLPFSAGELEALPLFRFVPLECIEGILEHSCVVSLERGERFEPAGPLGRTIHLILDGRLALYYDVRERDDTPLHLERGDIVGQSLVSGEPEVPCTLVAAEETRLMILEEDLIWSLAQASHAAACNLLGILLRGRGGSPQESFSGTVRDYALRNQAVVDPLTGFQSRRWLEGILSRQVDRFTANGRPLSLVMIDIDGFRAFNERHGRAGGDRALHDVAKTLRNSLRPGELVARYGGDTFAVLLPETEPSTAWMIADRLRQRLMRTVIDMGDGAMLPPLSISAGVAEATPGIDGPTIADNALAALDRAKAAGGNTVSR | failed |
| MSSCGCAYDILKYQLVIKGNRFNEESEQSMTETTENTVNLPYRNPKLPTEERIADLLGRMTLEEKVGQMMQLDARSGDLDDLIVNKHVGSILHTSPSDLPKAVETVNAKTRLGIPLVIGDDCIHGYSFWPGATIFPEQLGMATTWDSEKVQAAGRATAEEVSATGVHWTFSPVLCIARDTRWGRVGETFGEDPYLIGEMASSIVKGYQGGAKAGEPLAKDAILACAKHFAGYSETQGGRDASEADLSHRKLESWFLPPFERVAKEGCGTFMLGYESIEGVPVTFNKWLLSDKLRGAWNYQGTLITDWDNVGRSVWEQKVKPDYVQAAADAVKSGNDLVMTTPKFYEGAIEAVKTGLLDESLIDAAVARILALKFRLGLFEDPRLPDQKRIDAVIGSEEHQQLNLEVAREAVALLKNDGSLPFNVAGAKRIAVVGPLADDVQTQLGDWAGSSGQINWMPDGHPREMITTVLDGFKQLAPEGCEVVYSRGANIVDLVPDPEGEFYPDGQPRPKIGVSAKIDRALLGEAVENARKSDLIVAVVGDVIQAIGEGCSTATLELLGGQNALIDALSNVARETGKPFVVVLVSSKPQVLPASVIGTNGVIVDETPAEGTSALLWAPSPGMKGGQAIAEIILGETEPSGRLPITFPRHAGQLPVYYNQIRGQHGNRYADLTQNPAFAFGEGLSYTTFEYGDPTITNVPESGIFAETDTVHAEITLTNTGDRKGTEVVQLYIGDIVTSYSWTDRELKAFQRVELEPGKSKTVAFDIPVSDCTIVDSEANRIVEPGEFEVLIGHSSRREHLKRTTFTVA | failed |
| MGMAASFARASSVIMPAPPRRYFSRQRFHNFRRLAIIGSKATRSGDTAAMTDGKHLDALTAAYAAKRPEEVAALYDRWSRTYDADMSAAGYRHPTICLALLTRHLPRGAAPLLDAGAGTGLIGEWLDISGYPEVEALDISQGMLDQAARKGVYSALHCLALGGALPFADDAYAGIVSAGVFTSGHVGVEGLNELIRICRPGGVIVLTVKNTLWEQGFAARIAELEAQGVVTRAEETRPYVSMPGEADTVPSRGLALRVN | failed |
| MKVLIDTNVILDVLLNRASFVQDAIAVLELTCGNIQAYVSASAITDIYYIAYKELRDKIRVKNLIKTLLQIITVAGISDKEIMSAIDSDWADFEDSLQNAVAESHDCSMIITRNISDFNGSNLQIISPKDFIVQFTHLEHHHHHH | failed |
| MASHDHHHHHHDHEHDHEKSDGGEGKASWVGKDGKVYHSHDGLAPHSHEPIYSPGYFSRRAPPLHDRNFSERAFTVGIGGPVGTGKTALMLALCRFLRDKYSLAAVTNDIFTKEDGEFLVKNGALPEERIRAVETGGCPHAAIREDISINLGPLEELSNLFKADLLLCESGGDNLAANFSRELADYIIYIIDVSAGDKIPRKGGPGITQADLLVINKTDLAAAVGADLSVMERDSLRMRDGGPFVFAQVKHGLGVEEIVNHVMHSWEHATGKKRQ | not failed |
| MNKVITDLDKALSALKDGDTILVGGFGLCGIPEYAIDYIYKKGIKDLIVVSNNCGVDDFGLGILLEKKQIKKIIASYVGENKIFESQMLNGEIEVVLTPQGTLAENLHAGGAGIPAYYTPTGVGTLIAQGKESREFNGKEYILERAITGDYGLIKAYKSDTLGNLVFRKTARNFNPLCAMAAKICVAEVEEIVPAGELDPDEIHLPGIYVQHIYKGEKFEKRIEKITTRSTK | failed |
| MTSGIDLQNSFLQSLQGFGLPPGLAKLFWIPLPSILMIIGATVGVLVVVWLERKISAAAQQRIGPEYAGPLGVLQPVADGIKLVFKEDVVPAKADPWLFTLGPVLVVLPVFLSYLIVPFGQNLVITDINVGIFLWIALSSIAPIGLLMSGYASNNKYSLLGGLRAAAQSISYEIPLSLAVLAIVMMSNSLSTIDIVDQQSGYGILGWNIWRQPVGFLIFWIAALAECERLPFDLPEAEEELVAGYQTEYAGMKFALFYLGSYVNLVLSALVFSVLYLGGWDFPIPLENVANWLGVAPTTSWLQVLMAALGITMTVLKSYFLIFIAILLRWTVPRVRIDQLLNLGWKFLLPVALANLLITAALKLTFPMAFGG | failed |
| MSLKITRIDIHRTDLPVRGGVYRLSGGREYHSYDATIVSIETDTGLTGWGESTPFGSTYIAAHAGGTRAALELLAPAILGMDPRQHDRIWDRMRDTLKGHRDARAALDIACWDIAAQAAGLPLCDMTGGRVAGPVPVISSIGGDTPEAMRAKVARHRAQGFKGHSIKIGASEAEGGPALDAERITACLADRQPGEWYLADANNGLTVEHALRMLSLLPPGLDIVLEAPCASWAETKSLRARCALPLLLDELIQTETDLIAAIRDDLCDGVGLKVSKQGGITPMLRQRAIAAAAGMVMSVQDTVGSQISFAAILHLAQSTPRHLLRCALDTRAMTTAELAEIDAPLRDGGASAPSDPGLGLRVNRDALGTPVKTFGDPIEGHHHHHH | not failed |
| MKKRIILLLAVIIAAAAAGVAFYVAKDKGHEKAADVSVNTESGDELLVSITDTDLLTKYYENDKVIHEEKLTSYPAFALDQKQQVLYYTGNNEQNEMRLFKLDLKSHKKTMLYKGAESADSLFLSKDRSTIYFRLGKADESNFRIAAFDLKTKKYKNLYPAANDQDDTVSSFFYNQKNDSFALLHYSVEEDYKKTDEANEKGIDPEPTTIHFAEGRQNKFNELKSLNQFISDIAVSDDDKRILFTSYTQKGTEQTASIQMLNADTKKYESIISNQKSFKLLIDAQPQFSKDGKNIYFLAEAKGAKKLKDETGREAKVRTIYSYSLENKTFKKVWENPNGIINSFFVIN | failed |
| MIDDKYFDVFNDKSTLQAIAVPERLERRTTVTDRIDRNGTRHEAVVPVGAAYTLLPKQFCKPAAKNYLFELDDFQKISVCSLERDESVLVSAHTSSGKTVVAEYAIAMSLRSNQRVVYTSPIKALSNQKYRELLSEFSDVGLMTGDVTINPTASCLVMTTEILRNMLYRGGEVVREIHWIIFDEIHYMRDKERGVVWEETIILLPKHVRMVFLSATIPNALEFAEWISHIQSQVVHVVYTEKRVTPLVHYFRSNKLYKIKDAKFHKSNFLSAMRSIRKRNVGPREVGEAIGDASLPVVVFSFKRKDCERFAMKLDGRYLTDEEARTVQTIFTNAIMSLRKEDREIPIIQNILPLLMRGIGIHHSGLLPIIKEVVEILFQEGLLKVLFATETFSIGLNMPAKSVVFTALKKFDGEAMRLVSSGEYIQMSGRAGRRGIDSMGIVISIISEPITYKEASRLFSASSDNLVSAFRLTYNMLLNLMRVEGLDPLYLISRSFHHFQSYKKALAEEETLHLMYRRLEDIEPNETACLYRKREEKKVERGKRLVEAFGKYLKKGRVVDLFIPRNGPSITIRNAIVSKAREKVQCMVGTEEGVYMCSFPLHYIDCVYDIRVKLDVRVFTKSFEKIAVRDELDEEIEEIEGKILSMDPEWSFDFCVLCGKSSVGCLVSCSRELIDSEAVIVQMPENTKRYGESLEAARYPSTEMKSNMDGARAFFVNETLRQRYLEKLLELNSLKEIYHMRECKKMIEVLKKLEYCDDTTVLIKGRMACEISSGDELVLTEMIFNGDFAGIPVEHFVPLLSCIVFEEWDSDSFVLSDENKLYYRLLSDSVEKVCKVLKSCGIEIDPAAYLKRFSYELMDVVRMWVCGCTFISICSKTSIFEGSIIRTFKRLEELLRQLSSAARVIGNTELENMFALGIVKIKRDIVFANSLYI | failed |
| MIENSSPYTSEHFHYTVTDIKDLTKLGAIYDKTKKYWVYQGKPVMPDQFTFELLDFLHQLTHLSFSKMKALLERSHSPYYMLNRDRTLKNITETCKACAQVNASKSLEHHHHHH | not failed |
| SAKDPLAEAGLHFDELNKLRVLEPDVSQKTTELKEECEEFVDKIGQFQKIVGGLIELVDELAKEAETEKMKAIGARNLLKSVEKQREAQHQQLQALIAEKKMQLERYRIEYEALQKVEAEQSEFIDQFILQK | failed |
| MLFSIQTCPCQINPALNAVSTPLLYQDCCQPYHDGLYNQEVEDSDAIRADTAEHLMRTRYSAFVLVKPEYIVKTTLPAQQDLLDIKAIENWAKETDWAGLEVVAHTPKLSKRHAQVEFKAYFKTPDGLQAHHELSTFVKIKNKANSDASWYFLDPTVSMSVTQKQPCICGSGEKFKRCCGMYI | not failed |
| MMKRALTGIQASGKQHLGNYLGVMQSLIELQEQCQLFVFVADLHSITVDFQPQALKQNNFDLVRTLLAVGLDPQKACLFLQSDLLEHSMMGYLMMVQSNLGELQRMTQFKAKKAEQTRNPNGTLNIPTGLLTYPALMAGDILLYQPDIVPVGNDQKQHLELTRDLAQRIQKKFKLKLRLPQFVQNKDTNRIMDLFDPTKKMSKSSKNQNGVIYLDDPKEVVVKKIRQATTDSFNKIRFAPKTQPGVTNMLTILKALLKEPVNQSLTNQLGNDLEAYFSTKSYLDLKNALTEATVNLLVNIQRKREQISREQVFNCLQAGKNQAQATARTTLALFYDGFGLGSQNIK | not failed |
| AIREFNTKEKVFNEFTAVFDVLNHLPAFAKLHLANSMSVRYANTLGISQRNAEVFANRGTSGIDGVISTAYGYALKTSQLVTIITGDLAFFYDRNAFWNNYKPSNLRVVLLNNHGGGIFRMIDGPSALPELDELFETKQTLSARYLATEHGLEYTLCKNLNGLNQALESFFQPSMFGKILEIETDSVKN | failed |
| MDLVSLVERIGEAPTAALFGLITGITFGVAAQRSRFCLRAATVEFARGRMEDKVAVWLLTFSTALVWVQAAQLMGLMNGADARMMAVPGSWSGAIIGGLMFGAGMVLARGCSGRLLVLAATGNLRSVVSGLIFAVVAQMSLSGLLSPLRDKLAALWITEGGRNMNLLSTFGLPEYGGLVLGLVCAVLALVLARRHRIGAARLVFASGVGFAVALGWVLTYALSQVAFEPVQIESATFTGPSAHTLMFFLDRNAVLEFDVGLVPGVFIGAMIAAALAGEMKIQAFDGPVTMRKAMIGAALMGFGGMLAGGCAIGAGVTGGSIFVGTAWAALFFMWVGAMATDFLIDQRAASPRAA | failed |
| MAEVERPQLYLVTPPEIDLEIFPDRLAAVLDSTEVACLRLALAGKDEDRIARTGDALREVAHARDVALVIENHVLMVERLGLDGVHLTDGARLVRKLRKDLGPDAILGAFCGRTRHEGINAAEAGADYVAFGPVGTTALGDGSLAEAELFGWWSEMIEVPVVAEGALTPEKVAELAPLTDFFAVGEEIWREEDAAAALRRLLAPLGLEHHHHHH | not failed |
| MMEKYNKFDLLWLLVPLSGLIVMGLMAVYSATNGSTESVPLFYKQLSWAVTGAIAASIIYFMDYRVVKDNAYFMYAAGIILLIAVLVFGKKVAGATSWVRFGMFSFQPSELTKMFTIIAMARFLSDDQTDIGNMMDLGKALAIALVPAGLIMLQPDMGTTLTCLSFIVPMIVLAGFDLYYILLGVVPVALMLSGFFNLTILATIAVLSMVMFFLLRKKFYLHQFLVTGGGLLGGLLTWKFTSVILKPHQIKRIQIFLDPTADPRGAGYNALQAKIAIASGGIFGKGFLHGTQTQLRYIPAQWTDFIFCVIAEELGFLGSTLLLLLFAALVLRLVWMVGAIKNRFVELLLAGYASLLLTHVVINIGMTIGVMPVIGVPLPFISYGGSSLVANMMMVGLAMNFSKNRRHIGY | failed |
| MNYFATVARGLETLAAQELEQLGAHSVEPGFCGVAFEGDRTLLYRVNLWARLPFRILVDIHEFPCLDAKDLYRGIQTIDWQNYLTPDMTLAVNVTGKNAHLNHSHFTSLQVKNAIVDQQQEKLGERSNVELHEPDVRVNVHIERDFCTVKLDSSGNSLHRRGYRPAVGSAPLKESLAAALIQLSGWKQDQMFYDPLCGSGTLPLEASLKALNIAPGLFRESFGFENWLDFDLVLLEKLLQEAKDSQLDTLPAPIWGSDHDENVIEQAINNAQNCGVDNHVWFSQMELADVVAPADSGILLCNPPYGERLGRDSDLGAFYKLLGDVLKQRFKGWTAFVLSGNKELSQSIGLKSSKRIAVYNGALPCQLMKYELY | failed |
